Test results from PMC4777857.
Each block holds one substance with its values, some of them ahead of it.

Assays:
[1] = molecular target: C-terminal globular region of the collagen VI α2 chain; experiment: SAXS; C-terminal regions in solution (α1, 4.3 mg/ml; α2, 4 mg/ml; α4, 3.5 mg/ml; α6, 3.5 mg/ml) after Superdex200 in 10 mM phosphate buffer, 400 mM NaCl, pH 7.4; EMBL-P12 beamline, PETRAIII; molecular weight from the volume of correlation
[2] = molecular target: C-terminal globular region of the collagen VI α1 chain; experiment: as above
[3] = molecular target: monomeric heterotrimeric collagen VI molecule composed of one α1 chain, one α2 chain and one α6 chain (mouse (endogenous in tissue)) (UniProt Q04857); experiment: immunoelectron microscopy after negative staining; native collagen VI tetramers and microfibrils extracted from E14.5 mouse lungs by collagenase digestion; double labelling for 30 min at 37 °C with colloidal gold-labeled antibodies specific for the N-terminal regions of the long α chains
[4] = molecular target: C-terminal globular region of the collagen VI α4 chain; experiment: SAXS; C-terminal regions in solution (α1, 4.3 mg/ml; α2, 4 mg/ml; α4, 3.5 mg/ml; α6, 3.5 mg/ml) after Superdex200 in 10 mM phosphate buffer, 400 mM NaCl, pH 7.4; EMBL-P12 beamline, PETRAIII; molecular weight from the volume of correlation
[5] = molecular target: monomeric heterotrimeric collagen VI molecule composed of one α1 chain, one α2 chain and one α5 chain (mouse (endogenous in E14.5 lung)) (UniProt Q04857); experiment: immunoelectron microscopy after negative staining; native collagen VI tetramers and microfibrils extracted from E14.5 mouse lungs by collagenase digestion; double labelling for 30 min at 37 °C with colloidal gold-labeled antibodies specific for the N-terminal regions of the long α chains
[6] = molecular target: monomeric heterotrimeric collagen VI molecule composed of one α1 chain, one α2 chain and one α3 chain (mouse (endogenous in tissue)) (UniProt Q04857); experiment: as above
[7] = molecular target: monomeric heterotrimeric collagen VI molecule composed of one α1 chain, one α2 chain and one α4 chain (mouse (endogenous in tissue)) (UniProt Q04857); experiment: as above

Substance: C-terminal globular region of the collagen VI α2 chain (domain or fragment)
stoichiometry N [1]: 2

Substance: monomeric heterotrimeric collagen VI molecule composed of one α1 chain, one α2 chain and one α6 chain, Q04857 20-1025; Q02788 26-1034; Q8C6K9 19-2265
stoichiometry N [3]: 4

Substance: C-terminal globular region of the collagen VI α4 chain (domain or fragment)
stoichiometry N [4]: 2

Substance: monomeric heterotrimeric collagen VI molecule composed of one α1 chain, one α2 chain and one α3 chain (from UniProt Q04857 20-1025; Q02788 26-1034) (complex)
stoichiometry N [6]: 4

Substance: monomeric heterotrimeric collagen VI molecule composed of one α1 chain, one α2 chain and one α4 chain, Q04857 20-1025; Q02788 26-1034; A2AX52 23-2309
stoichiometry N [7]: 4

Other lines, results leading:

stoichiometry N [2]: 2
Substance: C-terminal globular region of the collagen VI α1 chain (domain or fragment)

stoichiometry N [5]: 4
Substance: monomeric heterotrimeric collagen VI molecule composed of one α1 chain, one α2 chain and one α5 chain, Q04857 20-1025; Q02788 26-1034; A6H584 19-2640
